Assay results from patent US20250019740.
Like-named read-outs stand apart in the source and are kept apart here.

Experiments:
[1] = test system: MBP-ENLYFQS-GST fusion protein
[2] = test system: synthetic substrate peptide […]
[3] = target: synthetic substrate peptide […]; remark: listed apart in the source

TEV-S219P
percent of fusion protein digested in 40 minutes at 30° C. at a 1:100 ratio [1]: compared to ˜68% for TEV-EAV and TEV-S219P

TEV variant S7 (E79G, S219R on the TEV-EAV template)
activity on the peptide in vitro [2]: six selected clones showed higher activity on the peptide […] (SEQ ID NO:33) compared to TEV-EAV

TEV variant E2 (S3I, P8Q, S31T, A231V on the TEV-EAV template)
activity on the peptide in vitro [2]: six selected clones showed higher activity on the peptide […] (SEQ ID NO:33) compared to TEV-EAV

uTEV3
percent of fusion cleaved after 30 mins at a 1:200 protease to substrate ratio [1]: compared to only 30% cleavage with uTEV3
KM [2]: the improved catalytic efficiency in uTEV3 appears to be mainly due to a significant KM decrease

TEV variant E1 (Q74L, S200N on the TEV-EAV template)
activity on the peptide in vitro [2]: six selected clones showed higher activity on the peptide […] (SEQ ID NO:33) compared to TEV-EAV

TEV variant S6 (E79S, A173G, V219S on the TEV-EAV template)
activity on the peptide in vitro [2]: six selected clones showed higher activity on the peptide […] (SEQ ID NO:33) compared to TEV-EAV

TEV variant E5 (K6M, S15L on the TEV-EAV template)
activity on the peptide in vitro [2]: six selected clones showed higher activity on the peptide […] (SEQ ID NO:33) compared to TEV-EAV

TEV variant S8 (A173D, V219K on the TEV-EAV template)
activity on the peptide in vitro [2]: six selected clones showed higher activity on the peptide […] (SEQ ID NO:33) compared to TEV-EAV

B1: enhanced TEV "eTEV" mutant TEV protease (S3I, P8Q, S31T, E79G, T173A, S219R, A231V) (protein)
chain: ILFKGQRDYNPISSTICHLTNESDGHTTTLYGIGFGPFIITNKHLFRRNNGTLLVQSLHGVFKVKNTTTLQQHLIDGRDMIIIRMPKDFPPFPQKLKFREPQREERICLVTTNFQTKSMSSMVSDTSCTFPSSDGIFWKHWIQTKDGQCGSPLVSTRDGFIVGIHSASNFANTNNYFTSVPKNFMELLTNQEAQQWVSGWRLNADSVLWGGHKVFMRKPEEPFQPVKEVTQLMRRRRR
KM [3]: KM of eTEV remained unchanged at 65 µM with that of TEV-EAV
fold decreased KM compared to TEV-S219P [3]: 2.77-fold decreased KM
fold improvement in catalytic efficiency (kcat/KM) compared to TEV-EAV [3]: 2-fold improvement in catalytic efficiency (kcat/KM) compared to TEV-EAV
fold increase in catalytic efficiency relative to the parent TEV-S219P [3]: ~8-fold overall increase in catalytic efficiency relative to the parent TEV-S219P
fold increased catalytic turnover rate (kcat) compared to TEV-S219P [3]: 2.73-fold increased catalytic turnover rate (kcat)
turnover rate (kcat) [3]: the turnover rate (kcat) was improved from 0.17 s^-1 to 0.41 s^-1

B2: TEV-EAV, triple mutant TEV variant (G79E, T173A, S219V) (protein)
chain: GESLFKGPRDYNPISSTICHLTNESDGHTTSLYGIGFGPFIITNKHLFRRNNGTLLVQSLHGVFKVKNTTTLQQHLIDERDMIIIRMPKDFPPFPQKLKFREPQREERICLVTNFQTKSMSSMVSDTSCTFPSSDGIFWKHWIQTKDGQCGSPLVSTRDGFIVGIHSASNFANTNNYFTSVPKNFMELLTNQEAQQWVSGWRLNADSVLWGGHKVFMVKPEEPFQPVKEATQLM
KM [3]: KM of eTEV remained unchanged at 65 µM with that of TEV-EAV
turnover rate (kcat) [3]: the turnover rate (kcat) was improved from 0.17 s^-1 to 0.41 s^-1
